T1: purified recombinant SLP-76
T1 sequence (Q13094 1-533, species assumed, looked up): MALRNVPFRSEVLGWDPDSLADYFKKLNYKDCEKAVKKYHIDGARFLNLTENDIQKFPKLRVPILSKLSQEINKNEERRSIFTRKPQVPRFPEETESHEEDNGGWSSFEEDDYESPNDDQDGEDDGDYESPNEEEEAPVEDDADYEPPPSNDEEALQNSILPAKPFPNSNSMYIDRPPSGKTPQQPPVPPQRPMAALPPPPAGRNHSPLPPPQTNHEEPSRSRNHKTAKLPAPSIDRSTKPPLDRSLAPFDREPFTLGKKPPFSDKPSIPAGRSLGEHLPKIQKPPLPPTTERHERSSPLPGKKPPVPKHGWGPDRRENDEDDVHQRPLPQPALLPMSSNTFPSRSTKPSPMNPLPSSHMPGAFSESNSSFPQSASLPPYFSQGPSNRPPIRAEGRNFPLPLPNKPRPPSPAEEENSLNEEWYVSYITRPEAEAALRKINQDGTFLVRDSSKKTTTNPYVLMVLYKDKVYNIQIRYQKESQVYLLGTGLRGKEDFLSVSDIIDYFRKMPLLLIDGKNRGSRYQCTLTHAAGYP


System: T1, purified recombinant SLP-76

Protein	phosphorylation of SLP 76 (incorporation of phosphotyrosine into the substrate, IP kinase assay)	kinase activity
FLAG-BTK wild-type (murine BTK with N-terminal 3XFLAG tag) (enzyme, N-terminal 3xFLAG tag) MAAVILESIFLKRSQQKKKTSPLNFKKRLFLLTVHKLSYYEYDFERGRRGSKKGSIDVEKITCVETVIPEKNPPPERQIPRRGEESSEMEQISIIERFPYPFQVVYDEGPLYVFSPTEELRKRWIHQLKNVIRYNSDLVQKYHPCFWIDGQYLCCSQTAKNAMGCQILENRNGSLKPGSSHRKTKKPLPPTPEEDQILKKPLPPEPTAAPISTTELKKVVALYDYMPMNANDLQLRKGEEYFILEESNLPWWRARDKNGQEGYIPSNYITEAEDSIEMYEWYSKHMTRSQAEQLLKQEGKEGGFIVRDSSKAGKYTVSVFAKSTGEPQGVIRHYVVCSTPQSQYYLAEKHLFSTIPELINYHQHNSAGLISRLKYPVSKQNKNAPSTAGLGYGSWEIDPKDLTFLKELGTGQFGVVKYGKWRGQYDVAIKMIREGSMSEDEFIEEAKVMMNLSHEKLVQLYGVCTKQRPIFIITEYMANGCLLNYLREMRHRFQTQQLLEMCKDVCEAMEYLESKQFLHRDLAARNCLVNDQGVVKVSDFGLSRYVLDDEYTSSVGSKFPVRWSPPEVLMYSKFSSKSDIWAFGVLMWEIYSLGKMPYERFTNSETAEHIAQGLRLYRPHLASERVYTIMYSCWHEKADERPSFKILLSNILDVMDEES	addition of immunoprecipitated wild-type BTK resulted in phosphorylation of both BTK itself and the SLP 76 target	
FLAG-BTK E41K (gain of function mutant of murine BTK with N-terminal 3XFLAG tag) (enzyme, N-terminal 3xFLAG tag) MAAVILESIFLKRSQQKKKTSPLNFKKRLFLLTVHKLSYYKYDFERGRRGSKKGSIDVEKITCVETVIPEKNPPPERQIPRRGEESSEMEQISIIERFPYPFQVVYDEGPLYVFSPTEELRKRWIHQLKNVIRYNSDLVQKYHPCFWIDGQYLCCSQTAKNAMGCQILENRNGSLKPGSSHRKTKKPLPPTPEEDQILKKPLPPEPTAAPISTTELKKVVALYDYMPMNANDLQLRKGEEYFILEESNLPWWRARDKNGQEGYIPSNYITEAEDSIEMYEWYSKHMTRSQAEQLLKQEGKEGGFIVRDSSKAGKYTVSVFAKSTGEPQGVIRHYVVCSTPQSQYYLAEKHLFSTIPELINYHQHNSAGLISRLKYPVSKQNKNAPSTAGLGYGSWEIDPKDLTFLKELGTGQFGVVKYGKWRGQYDVAIKMIREGSMSEDEFIEEAKVMMNLSHEKLVQLYGVCTKQRPIFIITEYMANGCLLNYLREMRHRFQTQQLLEMCKDVCEAMEYLESKQFLHRDLAARNCLVNDQGVVKVSDFGLSRYVLDDEYTSSVGSKFPVRWSPPEVLMYSKFSSKSDIWAFGVLMWEIYSLGKMPYERFTNSETAEHIAQGLRLYRPHLASERVYTIMYSCWHEKADERPSFKILLSNILDVMDEES	Phosphorylation using extracts from the “gain of function” and dominant negative mutant cell contracts appeared to be reduced compared to the wild-type BTK	
FLAG-BTK K430R (dominant negative mutant of murine BTK with N-terminal 3XFLAG tag) (enzyme, N-terminal 3xFLAG tag) MAAVILESIFLKRSQQKKKTSPLNFKKRLFLLTVHKLSYYEYDFERGRRGSKKGSIDVEKITCVETVIPEKNPPPERQIPRRGEESSEMEQISIIERFPYPFQVVYDEGPLYVFSPTEELRKRWIHQLKNVIRYNSDLVQKYHPCFWIDGQYLCCSQTAKNAMGCQILENRNGSLKPGSSHRKTKKPLPPTPEEDQILKKPLPPEPTAAPISTTELKKVVALYDYMPMNANDLQLRKGEEYFILEESNLPWWRARDKNGQEGYIPSNYITEAEDSIEMYEWYSKHMTRSQAEQLLKQEGKEGGFIVRDSSKAGKYTVSVFAKSTGEPQGVIRHYVVCSTPQSQYYLAEKHLFSTIPELINYHQHNSAGLISRLKYPVSKQNKNAPSTAGLGYGSWEIDPKDLTFLKELGTGQFGVVKYGKWRGQYDVAIRMIREGSMSEDEFIEEAKVMMNLSHEKLVQLYGVCTKQRPIFIITEYMANGCLLNYLREMRHRFQTQQLLEMCKDVCEAMEYLESKQFLHRDLAARNCLVNDQGVVKVSDFGLSRYVLDDEYTSSVGSKFPVRWSPPEVLMYSKFSSKSDIWAFGVLMWEIYSLGKMPYERFTNSETAEHIAQGLRLYRPHLASERVYTIMYSCWHEKADERPSFKILLSNILDVMDEES	Phosphorylation using extracts from the “gain of function” and dominant negative mutant cell contracts appeared to be reduced compared to the wild-type BTK	
FLAG-BTK R28C (xid mutant of murine BTK with N-terminal 3XFLAG tag) (enzyme, N-terminal 3xFLAG tag) MAAVILESIFLKRSQQKKKTSPLNFKKCLFLLTVHKLSYYEYDFERGRRGSKKGSIDVEKITCVETVIPEKNPPPERQIPRRGEESSEMEQISIIERFPYPFQVVYDEGPLYVFSPTEELRKRWIHQLKNVIRYNSDLVQKYHPCFWIDGQYLCCSQTAKNAMGCQILENRNGSLKPGSSHRKTKKPLPPTPEEDQILKKPLPPEPTAAPISTTELKKVVALYDYMPMNANDLQLRKGEEYFILEESNLPWWRARDKNGQEGYIPSNYITEAEDSIEMYEWYSKHMTRSQAEQLLKQEGKEGGFIVRDSSKAGKYTVSVFAKSTGEPQGVIRHYVVCSTPQSQYYLAEKHLFSTIPELINYHQHNSAGLISRLKYPVSKQNKNAPSTAGLGYGSWEIDPKDLTFLKELGTGQFGVVKYGKWRGQYDVAIKMIREGSMSEDEFIEEAKVMMNLSHEKLVQLYGVCTKQRPIFIITEYMANGCLLNYLREMRHRFQTQQLLEMCKDVCEAMEYLESKQFLHRDLAARNCLVNDQGVVKVSDFGLSRYVLDDEYTSSVGSKFPVRWSPPEVLMYSKFSSKSDIWAFGVLMWEIYSLGKMPYERFTNSETAEHIAQGLRLYRPHLASERVYTIMYSCWHEKADERPSFKILLSNILDVMDEES	Addition of BTK immunoprecipitated from the xid construct cell lysate resulted in hyperphosphorylation of the SLP 76 target	the kinase activity of BTK isolated from the xid mutant stable cell pool was significantly higher (approximately 10 fold)
